Assay results reported in paper doi:10.1101/2023.08.07.552313 (bioRxiv, 2023).

Target: NEIL1 DNA glycosylase (Homo sapiens (; the 390 aa …, UniProt Q96FI4)
Assay: two-hybrid

Sequence of NEIL1 DNA glycosylase (Homo sapiens (Q96FI4 whole entry): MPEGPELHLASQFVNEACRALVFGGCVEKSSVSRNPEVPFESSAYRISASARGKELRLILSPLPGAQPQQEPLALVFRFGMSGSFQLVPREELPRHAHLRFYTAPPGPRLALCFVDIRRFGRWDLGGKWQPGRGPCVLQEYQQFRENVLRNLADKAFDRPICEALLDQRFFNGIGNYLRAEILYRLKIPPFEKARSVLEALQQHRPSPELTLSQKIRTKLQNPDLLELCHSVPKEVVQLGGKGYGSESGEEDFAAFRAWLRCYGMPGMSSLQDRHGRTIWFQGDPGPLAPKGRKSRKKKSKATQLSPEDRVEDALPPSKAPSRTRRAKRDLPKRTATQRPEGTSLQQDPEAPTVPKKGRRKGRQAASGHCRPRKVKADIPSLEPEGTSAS

B1: A5 nanobody (anti-NEIL1 nanobody) (VHH)
VHH: EVQLQASGGGFVQPGGSLRLSCAASGATSERDIMGWFRQAPGKEREFVSAISYEPGGWHYYADSVKGRFTISRDNSKNTVYLQMNSLRAEDTATYYCAWQEIMYGEAYWRYWGQGTQVTVSS
binding result: binds
